Target: human FGFR1c/βKlotho receptor (human), P11362
Experiment: cell-based or functional assay

Chain of human FGFR1c/βKlotho receptor (human), P11362 (P11362 22-822, chain 1 of 2): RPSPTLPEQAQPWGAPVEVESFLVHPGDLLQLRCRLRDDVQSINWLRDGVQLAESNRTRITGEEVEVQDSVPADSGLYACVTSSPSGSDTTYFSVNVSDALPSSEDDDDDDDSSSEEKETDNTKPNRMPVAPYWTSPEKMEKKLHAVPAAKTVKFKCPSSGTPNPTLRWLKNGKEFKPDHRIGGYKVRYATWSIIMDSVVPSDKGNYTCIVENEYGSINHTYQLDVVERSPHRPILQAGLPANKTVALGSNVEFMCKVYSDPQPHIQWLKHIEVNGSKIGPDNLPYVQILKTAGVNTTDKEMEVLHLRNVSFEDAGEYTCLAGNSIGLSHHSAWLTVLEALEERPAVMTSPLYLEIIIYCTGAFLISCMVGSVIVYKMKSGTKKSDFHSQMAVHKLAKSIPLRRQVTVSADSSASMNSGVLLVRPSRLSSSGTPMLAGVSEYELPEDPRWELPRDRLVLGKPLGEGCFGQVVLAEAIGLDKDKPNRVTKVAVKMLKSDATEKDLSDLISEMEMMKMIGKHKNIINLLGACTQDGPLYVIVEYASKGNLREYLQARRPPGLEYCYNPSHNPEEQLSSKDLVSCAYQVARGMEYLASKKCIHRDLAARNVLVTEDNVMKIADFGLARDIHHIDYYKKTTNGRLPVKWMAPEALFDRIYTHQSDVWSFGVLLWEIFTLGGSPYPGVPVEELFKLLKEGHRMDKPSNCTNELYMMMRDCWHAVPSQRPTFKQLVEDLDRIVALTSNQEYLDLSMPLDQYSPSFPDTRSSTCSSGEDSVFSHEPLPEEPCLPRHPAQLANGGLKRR
Chain of human FGFR1c/βKlotho receptor (human), P11362 (chain, as listed by the source, chain 2 of 2): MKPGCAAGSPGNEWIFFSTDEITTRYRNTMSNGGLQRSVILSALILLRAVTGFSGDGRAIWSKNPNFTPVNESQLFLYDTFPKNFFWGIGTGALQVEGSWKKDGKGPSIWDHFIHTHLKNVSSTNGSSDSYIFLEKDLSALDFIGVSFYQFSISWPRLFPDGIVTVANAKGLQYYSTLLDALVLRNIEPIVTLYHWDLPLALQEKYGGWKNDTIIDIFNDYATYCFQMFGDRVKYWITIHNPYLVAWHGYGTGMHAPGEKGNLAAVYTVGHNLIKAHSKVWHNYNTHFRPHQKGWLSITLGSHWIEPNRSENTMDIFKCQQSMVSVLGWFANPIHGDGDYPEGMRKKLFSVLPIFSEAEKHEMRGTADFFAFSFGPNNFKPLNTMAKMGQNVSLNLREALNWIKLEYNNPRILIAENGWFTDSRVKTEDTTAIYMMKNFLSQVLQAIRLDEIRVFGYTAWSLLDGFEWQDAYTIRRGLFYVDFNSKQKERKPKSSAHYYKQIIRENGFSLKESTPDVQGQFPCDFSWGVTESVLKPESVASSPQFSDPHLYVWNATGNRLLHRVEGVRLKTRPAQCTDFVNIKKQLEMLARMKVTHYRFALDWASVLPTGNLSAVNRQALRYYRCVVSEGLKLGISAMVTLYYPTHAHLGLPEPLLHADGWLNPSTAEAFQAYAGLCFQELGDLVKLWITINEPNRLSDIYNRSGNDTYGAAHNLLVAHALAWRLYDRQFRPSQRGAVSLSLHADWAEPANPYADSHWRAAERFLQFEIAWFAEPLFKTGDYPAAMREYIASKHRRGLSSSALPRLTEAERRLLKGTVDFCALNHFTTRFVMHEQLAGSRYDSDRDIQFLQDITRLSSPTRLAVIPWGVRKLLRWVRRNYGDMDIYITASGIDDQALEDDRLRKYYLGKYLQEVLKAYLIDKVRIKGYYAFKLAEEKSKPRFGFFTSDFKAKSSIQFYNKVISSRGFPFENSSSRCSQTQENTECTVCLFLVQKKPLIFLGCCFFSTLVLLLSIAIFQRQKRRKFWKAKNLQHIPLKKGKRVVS

| Binder | EC50, luciferase reporter-based assay (receptor activation) [nM] | EC50 for antibody-induced cell activation, as determined by the reporter-based assay [nM] |
| --- | --- | --- |
| CB-8 (antibody, V domains shown) VH: EVQLVQSGAEVKKPGASVKVSCKASGYTFTSYGISWVRQAPGQGLEWMGWISAYNGNTNYAQKLQGRVTMTTDTSTSTAYMELRSLRSDDTAVYYCATLYGSGSLYYWGQGTLVTVSS VL: DIVMTQSPSSLSAPVGDRVTITCQASQDIRNYINWFQQKPGKAPKLLIYAASSLQSGVPSRFSGSGSGTDFTLTISSLQPEDFATYYCQQSYSTPQWTFGQGTKVEIK | 1.31 | 3.74 |
| CB-8-14 (antibody, human IgG1, V domains shown) VH: EVQLVQSGAEVKKPGASVKVSCKASGYTFRSYGISWVRQAPGQGLEWMGWISAYTGNTNYAQKLQGRVTMTTDTSTSTAYMELRSLRSDDTAVYYCATLYGSGSLYYWGQGTLVTVSS VL: DIVMTQSPSSLSAPVGDRVTITCQASQDIRNYINWFQQKPGKAPKLLIYAASSRQSGVPSRFSGSGSGTDFTLTISSLQPEDFATYYCQQSYSTPQWTFGQGTKVEIK |  | 0.95 |
| CB-8-26 (antibody, human IgG1, V domains shown) VH: EVQLVQSGAEVKKPGASVKVSCKASGYTFKSYGISWVRQAPGQGLEWMGWISAYNGRTNYAQKLQGRVTMTTDTSTSTAYMELRSLRSDDTAVYYCATLYGSGSLYYWGQGTLVTVSS VL: DIVMTQSPSSLSAPVGDRVTITCQASQDIRNYINWFQQKPGKAPKLLIYAASGLQSGVPSRFSGSGSGTDFTLTISSLQPEDFATYYCQQSYSTPQWTFGQGTKVEIK |  | 0.66 |
| CB-8-13 (antibody, human IgG1, V domains shown) VH: EVQLVQSGAEVKKPGASVKVSCKASGYRFTSYGISWVRQAPGQGLEWMGWISAYNGRTNYAQKLQGRVTMTTDTSTSTAYMELRSLRSDDTAVYYCATLYGSGSLYYWGQGTLVTVSS VL: DIVMTQSPSSLSAPVGDRVTITCQASQDIRNYINWFQQKPGKAPKLLIYAASRLQSGVPSRFSGSGSGTDFTLTISSLQPEDFATYYCQQSYSTPQWTFGQGTKVEIK |  | 1.39 |
| CB-8-23 (antibody, human IgG1, V domains shown) VH: EVQLVQSGAEVKKPGASVKVSCKASGYTFTSGGISWVRQAPGQGLEWMGWISAYNGRTNYAQKLQGRVTMTTDTSTSTAYMELRSLRSDDTAVYYCATLYGSGSLYYWGQGTLVTVSS VL: DIVMTQSPSSLSAPVGDRVTITCQASQDIRNYINWFQQKPGKAPKLLIYAASFLQSGVPSRFSGSGSGTDFTLTISSLQPEDFATYYCQQSYSTPQWTFGQGTKVEIK |  | 0.57 |
| CB-8-24 (antibody, V domains shown) VH: EVQLVQSGAEVKKPGASVKVSCKASGYTFTSYGISWVRQAPGQGLEWMGWISAYNGNTNYAQKLQGRVTMTTDTSTSTAYMELRSLRSDDTAVYYCATLLPSGSLYYWGQGTLVTVSS VL: DIVMTQSPSSLSAPVGDRVTITCQASQDIRNYINWFQQKPGKAPKLLIYAASSLQSGVPSRFSGSGSGTDFTLTISSLQPEDFATYYCQQSYSTPQWTFGQGTKVEIK |  | 0.68 |

Continued, values first:

| EC50, luciferase reporter-based assay (receptor activation) [nM] | EC50 for antibody-induced cell activation, as determined by the reporter-based assay [nM] | Binder |
| --- | --- | --- |
|  | 0.92 | CB-8-37 (antibody, human IgG1, V domains shown) VH: EVQLVQSGAEVKKPGASVKVSCKASGYAFTSYGISWVRQAPGQGLEWMGWISAYSGNTNYAQKLQGRVTMTTDTSTSTAYMELRSLRSDDTAVYYCATLYGSGSLYYWGQGTLVTVSS VL: DIVMTQSPSSLSAPVGDRVTITCQASQDIRNYINWFQQKPGKAPKLLIYAASFLQSGVPSRFSGSGSGTDFTLTISSLQPEDFATYYCQQSYSTPQWTFGQGTKVEIK |
|  | 1.43 | CB-8-41 (antibody, human IgG1, V domains shown) VH: EVQLVQSGAEVKKPGASVKVSCKASGYLFTSYGISWVRQAPGQGLEWMGWISAYTGNTNYAQKLQGRVTMTTDTSTSTAYMELRSLRSDDTAVYYCATLYGSGSLYYWGQGTLVTVSS VL: DIVMTQSPSSLSAPVGDRVTITCQASQDIRNYINWFQQKPGKAPKLLIYAASHLQSGVPSRFSGSGSGTDFTLTISSLQPEDFATYYCQQSYSTPQWTFGQGTKVEIK |
|  | 0.89 | CB-8-40 (antibody, human IgG1, V domains shown) VH: EVQLVQSGAEVKKPGASVKVSCKASGYTFTSYGISWVRQAPGQGLEWMGWISAYSGNTNYAQKLQGRVTMTTDTSTSTAYMELRSLRSDDTAVYYCATLYGSGSLYYWGQGTLVTVSS VL: DIVMTQSPSSLSAPVGDRVTITCQASQDIRNYINWFQQKPGKAPKLLIYAASYLQSGVPSRFSGSGSGTDFTLTISSLQPEDFATYYCQQSYSTPQWTFGQGTKVEIK |

From patent US20250066509A1
